B1: GST-partial Synoviolin: GST fusion protein of a portion of Synoviolin (cDNA 1799 bp; SEQ ID NO: 1, No. 1233-3031) expressed in E. coli (protein)
chain: PPVPPPPSSGEAVAPPSTSAAALSRPSGAATTTAAGTSATAASATASGPGSGSAPEAGPAPGFPFPPPWMGMPLPPPFAFPPMPVPPAGFAGLTPEELRALEGHERQHLEARLQSLRNIHTLLDAAMLQINQYLTVLASLGPPRPATSVNSTEGTATTVVAAASSTSIPSSEATTPTPGASPPAPEMERPPAPESVGTEEMPEDGEPDAAELRRRRLQKLESPVAH
modifications: left off: a dimerising Fc or GST
B2: GST-SL: GST fusion protein of Synoviolin ligand (SL), thought to be the same protein as S1-5 (protein)
chain: QDTEETITYTQCTDGYEWDPVRQQCKDIDECDIVPDACKGGMKCVNHYGGYLCLPKTAQIIVNNEQPQQETQPAEGTSGATTGVVAASSMATSGVLPGGGFVASAAAVAGPEMQTGRNNFVIRRNPADPQRIPSNPSHRIQCAAGYEQSEHNVCQDIDECTAGTHNCRADQVCINLRGSFACQCPPGYQKRGEQCVDIDECTIPPYCHQRCVNTPGSFYCQCSPGFQLAANNYTCVDINECDASNQCAQQCYNILGSFICQCNQGYELSSDRLNCEDIDECRTSSYLCQYQCVNEPGKFSCMCPQGYQVVRSRTCQDINECETTNECREDEMCWNYHGGFRCYPRNPCQDPYILTPENRCVCPVSNAMCRELPQSIVYKYMSIRSDRSVPSDIFQIQATTIYANTINTFRIKSGNENGEFYLRQTSPVSAMLVLVKSLSGPREHIVDLEMLTVSSIGTFRTSSVLRLTIIVGPFSF
modifications: left off: a dimerising Fc or GST

Tests used:
[35S]HA-Synoviolin-HAHA = biological target: T1, [35S]HA-Synoviolin-HAHA (Homo sapiens, UniProt Q86TM6); assay: Binding of Synoviolin to SL on nylon membrane with [35S]-labeled probe; conditions: protein transferred to nylon membrane, 2 hours at room temperature
T1 construct: Expression of Full-Length Synoviolin Recombinant Protein in E. coli; made in house; host or cells: cell-free in vitro translation (TNT-coupled Translation System, Promega) from pcDNA3-HA-synoviolin-HAHA
Description: The SL cDNA was inserted into a pGEX vector in the same manner as in Example 3 to prepare GST-SL fusion protein, and the GST-SL (500 ng) was applied to 10% SDS-PAGE along with GST (1 μg) as a control. After SDS-PAGE, it was transferred to a nylon membrane by electroblotting. This nylon membrane was denatured for 1 hour at room temperature with 50 mM Tris-HCl (pH 8.0) containing 6M guanidine hydrochloride and 5 mM 2-mercaptoethanol, and regenerated overnight at 4° C. in 50 mM Tris-HCl (pH 8.0) containing 5 mM 2-mercaptoethanol and 0.05% Tween 20. The regenerated nylon membrane was treated with blocking buffer [10 mM Tris-HCl (pH 8.0), 5% skim milk, 0.1% Triton X-100, 150 mM NaCl, 1 mM EDTA, 5 mM MgCl2, 1 mM DTT, 5% glycerol, protease inhibitor (complete, Boehringer Mannheim)] and washed in blocking buffer (same as above, except for 0.5% skim milk). […] This nylon membrane was washed in 10 mM Tris-HCl (pH 8.0), 0.5% skim milk, 0.1% Triton X-100, 150 mM NaCl, 1 mM EDTA, 5 mM MgCl2, 1 mM DTT, and protease inhibitor (complete, Boehringer Mannheim), and its radioactivity was detected with an image analyzer (BAS2000, Fujix). […]

[1] = system: RA patient-derived synovial cells; assay: MTT assay of synovial cell hyperplasia; assay type: cell-based, human; conditions: 1 μM, three days of culture, 10%-FCS/DMEM, 37° C., 5% CO2
Description: The RA patient-derived synovial cells prepared in Example 1 were used to prepare 96 well plates so that there were 5×10^3 cells/well, and GST or GST-partial Synoviolin was added to the cell supernatant so that the final concentration became 0.01 to 1 μM. After three days of culture, 3-(4,5-dimethyl-2-thiazolyl)-2,5-diphenyl-2H-tetrazolium bromide (MTT)/PBS was added to the cell supernatant, and it was cultured for 3 hours under conditions of 37° C. and 5% CO2. After culturing, the cell supernatant was removed, crystals of MTT formazan were dissolved with dimethyl sulfoxide, and absorbance measurement was performed (Journal of Immunological Methods, 65, 55, 1983).

[2] = system: anti-synovial cell anti-serum; assay: Antibody absorption experiment in Western blotting of cell lysates; assay type: binding, rabbit; conditions: RA patient-derived synovial cells, 2.0 mg/mL
Description: First, the various cells used as specimens were solubilized in 1% NP-40 to prepare cell lysates. Each of the cell lysates was treated with 25 mM Tris-HCl (pH 6.8), 0.25% sodium dodecyl sulfate (SDS), 0.05% mercaptoethanol and 0.1% glycerol, and then separated with 8% SDS polyacrylamide electrophoresis (SDS-PAGE). After SDS-PAGE, protein derived from the various cells was transferred to a nitrocellulose (NC) membrane by electroblotting. On this NC membrane, anti-synovial cell anti-serum was diluted 1000 times with Tris buffered saline (TBS) containing 2.0 mg/mL GST-partial Synoviolin fusion protein and 5% skim milk, and subjected to immune reaction for 60 minutes at room temperature. In addition, as negative controls, an experiment wherein the same antibody solution is reacted with the NC membrane, and an experiment wherein the GST-partial Synoviolin fusion protein in the antibody solution is replaced with GST alone were performed at the same time. After the reaction, the NC membrane was washed with 0.1% Tween 20/TBS, subjected to an immune reaction for 60 minutes at room temperature with horseradish peroxidase (HRP) labeled anti-rabbit IgG antibodies as the secondary antibodies, and washed with 0.1% Tween 20/TBS, and the target antigen was detected by detecting HRP activity. […]

[3] = system: anti-synovial cell anti-serum; assay: Antibody absorption in fluorescent immunostaining of synovial cells; assay type: binding, rabbit
Description: Immunostaining was performed by fixing synovial cells upon glass slides by the ordinary method, and immunostaining was performed using the anti-synovial cell anti-serum of Example 1. A sample subjected to 30-minute blocking with 1% bovine serum albumin (BSA) was allowed to undergo immune reaction for 60 minutes at room temperature with anti-synovial cell anti-serum diluted 100 times with 1% BSA. In addition, along with observation with anti-serum, experiments were also performed using anti-synovial cell antibodies purified from this anti-serum. Purified anti-synovial cell antibodies were prepared by immunoaffinity purification using GST-partial Synoviolin fusion protein as a ligand. The ligand used was a fusion protein expressed after the GST-fusion protein expression vector pGEX-5X-3 containing the 1799 bp synoviolin gene up to No. 1233-3031 of SEQ ID NO: 1 was transformed into BL21. A Glutathione Sepharose column was produced by the method of the Pharmacia Corp, to prepare a GST-partial syno-GS column. As a control for the case where purified anti-synovial cell antibodies were used, an anti-GST antibody obtained by the immunoaffinity purification of anti-serum in the same manner where GST was used as the ligand was used. […]

[4] = system: anti-synovial cell anti-serum; assay: Antibody absorption test in synovial tissue staining; assay type: binding, rabbit; conditions: 2.0 mg/mL added to anti-serum
Description: The staining of RA patient-derived synovial tissue was performed by fixing synovial tissue upon glass slides by the ordinary method. A sample subjected to 30-minute blocking with 1% BSA was allowed to undergo immune reaction for 60 minutes at room temperature with anti-synovial cell anti-serum diluted 100 times with 1% BSA. After reaction, the sample was washed with PBS and then allowed to undergo immune reaction using HRP-labeled anti-rabbit IgG antibodies as the secondary antibody. Confirmation of the antigen in the immune reaction with anti-synovial cell anti-serum was performed by the coloring of 3,3′-diaminobenzidine tetrahydrochloride based on HRP activity. In the same manner as in the aforementioned Western blotting, GST-partial Synoviolin fusion protein was used to perform an anti-synovial cell anti-serum absorption test with respect to synovial tissue staining. Tissue staining was performed by adding 2.0 mg/mL of GST-partial Synoviolin fusion protein or GST (2.0 mg/mL) to anti-synovial cell anti-serum.

T1 sequence (Q86TM6 whole entry E545G): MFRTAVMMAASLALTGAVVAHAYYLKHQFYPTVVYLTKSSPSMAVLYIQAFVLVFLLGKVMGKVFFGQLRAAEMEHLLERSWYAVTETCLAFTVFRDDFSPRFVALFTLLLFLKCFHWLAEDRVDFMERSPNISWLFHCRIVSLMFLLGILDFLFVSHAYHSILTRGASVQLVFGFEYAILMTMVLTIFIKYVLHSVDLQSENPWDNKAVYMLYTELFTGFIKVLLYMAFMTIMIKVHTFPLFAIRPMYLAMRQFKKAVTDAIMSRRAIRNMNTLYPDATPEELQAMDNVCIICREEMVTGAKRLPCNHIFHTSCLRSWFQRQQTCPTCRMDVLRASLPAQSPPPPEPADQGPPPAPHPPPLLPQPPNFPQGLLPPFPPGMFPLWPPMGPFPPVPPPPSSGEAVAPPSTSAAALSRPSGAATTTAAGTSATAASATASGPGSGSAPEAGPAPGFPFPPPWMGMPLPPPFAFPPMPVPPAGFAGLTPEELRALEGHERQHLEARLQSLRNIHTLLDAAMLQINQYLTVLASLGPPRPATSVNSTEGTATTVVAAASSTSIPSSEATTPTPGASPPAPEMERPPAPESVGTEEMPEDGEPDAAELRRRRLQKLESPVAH

Row | Molecule | binding to [35S]HA-Synoviolin-HAHA ([35S]HA-Synoviolin-HAHA) | RA patient-derived synovial cell hyperplasia [1] | immune reaction of anti-synovial cell anti-serum to the 220 kDa protein [2] | immune reaction of anti-synovial cell anti-serum to the approximately 140 kDa and approximately 185 kDa proteins [2] | immune reaction of anti-synovial cell anti-serum with RA patient-derived synovial cells [3] | staining of synovial tissue with anti-synovial cell anti-serum [4]
1 | glutathione S-transferase [GST, reference compound] | not observed |  |  |  |  | 
2 | B1 |  | significantly suppressed | blocked | partially blocked | blocked | weakened
3 | B2 | observed |  |  |  |  | 

Reference: patent US7632507B2, “Synovial cell protein” (St. Marianna University School of Medicine, priority 2000, dated 2009)
